Where two headings read alike, the source gives them in different places.
Tests used:
murine serum albumin = molecular target: T1, murine serum albumin (mouse, UniProt P07724 25-608); assay: SPR, captured albumin
T1 construct: also called MuSA; mouse serum albumin
Method: The kinetics of selected SABA clones purified from HTPP and/or midscaled material described in Examples 5A and 5B were determined by capturing the respective serum albumin (HSA/RhSA/MuSA) on the surface of a Biasensor CMS chip and flowing a concentration series of SABAs over both the reference flow cell and the captured albumins. In addition, binding to albumin was carried out under various pH conditions ranging from pH 5.5 to pH 7.4.

[1] = molecular target: T2, human PCSK9 (proprotein convertase subtilisin kexin type 9) (human, UniProt Q8NBP7 31-692); assay: cell-based or functional assay
[2] = molecular target: T2, human PCSK9 (proprotein convertase …); assay: PCSK9:EGFA FRET at 5 nM PCSK9, competitor EGFA peptide
[3] = molecular target: T3, human PCSK9 (proprotein convertase subtilisin kexin type 9) (human, UniProt Q8NBP7 31-692); assay: ITC, 37 C, average of 3 experiments
T3 construct: Directly immobilized (SPR ProteOn), biotinylated (BLI), or in solution, depending on the assay; also called hPCSK9
Method: Solution phase binding was measured in 25 mM HEPES, pH 7.41, 150 mM NaCl at 37° C.

[4] = molecular target: T3, human PCSK9 (proprotein convertase …); assay: KinExA, solution phase
Method: Due to technical limitations, the lowest concentration of Adnectins that could be tested was 1 nM.

[5] = molecular target: T3, human PCSK9 (proprotein convertase …); assay: BLI, biotinylated hPCSK9 on sensor tips
[6] = molecular target: T2, human PCSK9 (proprotein convertase …); assay: ITC, 37 C
[7] = molecular target: T2, human PCSK9 (proprotein convertase …); assay: cell-based or functional assay; remark: listed apart in the source
[8] = molecular target: T2, human PCSK9 (proprotein convertase …); assay: PCSK9:EGFA FRET, competitor EGFA peptide
[9] = molecular target: T3, human PCSK9 (proprotein convertase …); assay: cell-based or functional assay; remark: listed apart in the source
cynomolgus monkey PCSK9 [10] = molecular target: T4, cynomolgus monkey PCSK9 (cynomolgus monkey, UniProt A0A7N9D9N8 150-747); assay: FRET, competitor EGFA peptide
Source text: (§1) Table 11 summarizes the overall data from these three FRET assays.

[11] = molecular target: T3, human PCSK9 (proprotein convertase …); assay: FRET, competitor EGFA peptide
Source text: as §1

cynomolgus monkey PCSK9 [12] = molecular target: T4, cynomolgus monkey PCSK9; assay: SPR ProteOn, PCSK9 immobilized, 25 C
Method: (§2) The binding characteristics were characterized by Surface Plasmon Resonance (SPR). […] This allowed kinetic determination in the absence of regeneration. […] Evaluation of the kinetic parameters was performed using the Langmuir interaction model and constant parameter fitting with the ProteOn Manager software.

[13] = molecular target: T3, human PCSK9 (proprotein convertase …); assay: SPR ProteOn, PCSK9 immobilized, 25 C
Method: as §2

[14] = molecular target: T3, human PCSK9 (proprotein convertase …); assay: FRET, competitor ATI000972
Source text: as §1

cynomolgus monkey PCSK9 [15] = molecular target: T4, cynomolgus monkey PCSK9; assay: SPR ProteOn, 25 C
Method: as §2

[16] = molecular target: T3, human PCSK9 (proprotein convertase …); assay: SPR ProteOn, 25 C
Method: as §2

[17] = molecular target: T3, human PCSK9 (proprotein convertase …); assay: FRET direct binding, anti-his6 antibody
Source text: as §1

Cynomolgus PCSK9 = molecular target: T5, Cynomolgus PCSK9 (cynomolgus monkey, UniProt A0A7N9D9N8 150-747); assay: SPR (ProteOn), PCSK9 immobilized directly, 25 C
T5 construct: also called cyno PCSK9; cPCSK9
Method: as §2

[18] = molecular target: T2, human PCSK9 (proprotein convertase …); assay: SPR (ProteOn), 25 C
[19] = molecular target: T2, human PCSK9 (proprotein convertase …); assay: BLI (Octet Red), 37 C
Method: Tips were then immersed into a buffer-only well for observation of Adnectin dissociation. Experiments were performed in a temperature controlled environment at either 25 or 37° C., and the oscillation speed was set at 1500 rpm.
Binding interaction analysis was performed using proprietary software from Fortebio (Fortebio Data Analysis Software version 6.3.0.36). Global fits were performed for all samples, using a 1:1 binding model. The nature of these global fits constrained all values of concentration to a single pair of association and dissociation rates that were themselves constrained to each other. Affinities (KD), association and dissociation rates were averaged over the various loading levels used in the analysis.

[20] = molecular target: T2, human PCSK9 (proprotein convertase …); assay: PCSK9:ATI-972 FRET at 5 nM human PCSK9, competitor biotinylated ATI-972

B1: SABA4.1 (designed binder)
chain: MGVSDVPRDLEMVAATPTSLLISWEDDSYYSRYYRITYGETGGNSPVQEFTVPSDLYTATISGLKPGVDYTITVYAVTYDVTDLIMHEPISINYRTEIDKPSQHHHHHH
- binding result (murine serum albumin): no binding

B2: SABA3.1 (designed binder)
chain: MGVSDVPRDLEVVAATPTSLLISWSNDGPGLSYYRITYGETGGNSPVQEFTVPSSQTTATISGLKPGVDYTITVYAVSYYTKKAYSAGPISINYRTEIDKPSQHHHHHH
notes: also called clone 1245H07
- binding result (murine serum albumin): no binding

B3: SABA1.1 (designed binder)
chain: MGVSDVPRDLEVVAATPTSLLISWHSYYEQNSYYRITYGETGGNSPVQEFTVPYSQTTATISGLKPGVDYTITVYAVYGSKYYYPISINYRTEIDKPSQHHHHHH
notes: core 1 10Fn3 with His6; also called clone 1318H04
- binding result (murine serum albumin): no binding

B4: ATI001174 (designed binder)
chain: MGVSDVPRDLEVVAATPTSLLISWVPPSDDYGYYRITYGETGGNSPVQEFTVPIGKGTATISGLKPGVDYTITVYAVEFPWPHAGYYHRPISINYRTEIEKPCQ
modifications: PEG on the cysteine of the C-terminal tail (EIEKPCQ)
notes: also called ATI-1174; ATI1174
- PCSK9-induced LDLR depletion in HepG2 cells, EC50 [1]: 8 nM
- inhibition of PCSK9-AF647 intracellular fluorescence in HepG2 cells, EC50 [1]: 10 nM
- EC50 [2]: 1.9 nM

B5: ATI001174 (designed binder)
chain: MGVSDVPRDLEVVAATPTSLLISWVPPSDDYGYYRITYGETGGNSPVQEFTVPIGKGTATISGLKPGVDYTITVYAVEFPWPHAGYYHRPISINYRTEIEKPCQ
modifications: PEGylated on the cysteine of the C-terminal EIEKPCQ tail
notes: PEGylated, non-His-tagged cysteine mutant of 2013E01; also called ATI-1174; ATI1174
- Ka [3]: 7.5e+08 M⁻¹
- Kd [3]: 1.3 nM
- Stoichiometry (N) [3]: 0.857
- ΔH [3]: -125 kJ/mol
- ΔS [3]: -55.8 cal/mol °C
- Kd [4]: 0.223 nM
- Kd [5]: 7.4 nM
- koff [5]: 0.000901 s⁻¹
- kon [5]: 126000 M⁻¹ s⁻¹

B6: 1784F03 (designed binder)
chain: MGVSDVPRDLEVVAATPTSLLISWRPPIHAYGYYRITYGETGGNSPVQEFTVPIVEGTATISGLKPGVDYTITVYAVEYTFKHSGYYHRPISINYRTEIDKPSQHHHHHH
- Kd [6]: 3.8 nM
- DiI-LDL uptake in HepG2 cells, EC50 [1]: 210 nM
- EC50 (nM), PCSK9-induced LDLR depletion from HepG2 cell surface [1]: 16 nM
- percentage of PCSK9 inhibition at 75 nM [1]: 150%
- LDLR Depletion (% inhibition at 75 nM) [7]: 150%
- LDLR Depletion EC50 [7]: 26 nM
- EC50 [8]: 2 nM

B7: 1922G04 (designed binder)
chain: MGVSDVPRDLEVVAATPTSLLISWRPPSHAYGYYRITYGETGGNSPVQEFTVPIGKGTATISGLKPGVDYTITVYAVEYPWKGSGYYHRPISINYRTEIDKPSQHHHHHH
notes: Anti-PCSK9 Adnectin, His6-tagged; also called ATI001057; ATI-1057
- LDLR Depletion EC50 [9]: 10 nM
- EC50 (cynomolgus monkey PCSK9 [10]): 26.6 nM
- EC50 [11]: 1.2 nM
- IC50 [11]: 1.2 nM
- Kd (cynomolgus monkey PCSK9 [12]): 15 nM
- koff (cynomolgus monkey PCSK9 [12]): 0.007 s⁻¹
- kon (cynomolgus monkey PCSK9 [12]): 465000 M⁻¹ s⁻¹
- Kd [13]: 0.094 nM
- koff [13]: 5.08e-05 s⁻¹
- kon [13]: 541000 M⁻¹ s⁻¹
- IC50 [14]: 2 nM
- Kd [5]: 0.255 nM
- koff [5]: 0.00014 s⁻¹
- kon [5]: 532000 M⁻¹ s⁻¹
- Kd (cynomolgus monkey PCSK9 [15]): 15 nM
- Kd [16]: 0.09 nM
- EC50 [17]: 2.5 nM

B8: 2012A04 (designed binder)
chain: MGVSDVPRDLEVVAATPTSLLISWRPPSNGHGYYRITYGETGGNSPVQEFTVPVNEGTATISGLKPGVDYTITVYAVEFPFKWSGYYHRPISINYRTEIDKPSQHHHHHH
- DiI-LDL uptake in HepG2 cells, EC50 [1]: 130 nM
- EC50 (nM), PCSK9-induced LDLR depletion from HepG2 cell surface [1]: 7.78 nM
- percentage of PCSK9 inhibition at 75 nM [1]: 190%
- Kd (Cynomolgus PCSK9): 24 nM
- LDLR Depletion (% inhibition at 75 nM) [7]: 144%
- LDLR Depletion EC50 [7]: 12 nM
- EC50 [8]: 2.1 nM
- Kd [18]: 0.25 nM

B9: 1813E02 (designed binder)
chain: MGVSDVPRDLEVVAATPTSLLISWSPPANGYGYYRITYGETGGNSPVQEFTVPVGRGTATISGLKPGVDYTITVYAVEYTYKGSGYYHRPISINYRTEIDKPSQHHHHHH
- Kd [6]: < 2 nM
- LDLR Depletion EC50 [7]: 16 nM
- EC50 [8]: 1.3 nM

B10: 2013E01 (designed binder)
chain: MGVSDVPRDLEVVAATPTSLLISWVPPSDDYGYYRITYGETGGNSPVQEFTVPIGKGTATISGLKPGVDYTITVYAVEFPWPHAGYYHRPISINYRTEIDKPSQHHHHHH
notes: unmodified (not PEGylated) Adnectin; also called ATI001081
- Kd [19]: 1.51 nM
- DiI-LDL uptake in HepG2 cells, EC50 [1]: 160 nM
- EC50 (nM), PCSK9-induced LDLR depletion from HepG2 cell surface [1]: 12.4 nM
- PCSK9-induced LDLR depletion in HepG2 cells, EC50 [1]: 9 nM
- percentage of PCSK9 inhibition at 75 nM [1]: 152%
- EC50 [2]: 3.7 nM
- EC50 [20]: 2.8 nM
- Kd (Cynomolgus PCSK9): 8 nM
- LDLR Depletion (% inhibition at 75 nM) [7]: 166%
- LDLR Depletion EC50 [7]: 10 nM
- EC50 [8]: 1.6 nM
- Kd [18]: 0.29 nM

B11: 2011H05 (designed binder)
chain: MGVSDVPRDLEVVAATPTSLLISWVPSSHAYGYYRITYGETGGNSPVQEFTVPVGVGTATISGLKPGVDYTITVYAVEYAFEGAGYYHRPISINYRTEIDKPSQHHHHHH
notes: Anti-PCSK9 Adnectin, His6-tagged; also called ATI001091
- LDLR Depletion EC50 [9]: 12 nM
- EC50 (cynomolgus monkey PCSK9 [10]): 17.2 nM
- EC50 [11]: 2.7 nM
- IC50 [11]: 2.7 nM
- Kd (cynomolgus monkey PCSK9 [12]): 23.1 nM
- koff (cynomolgus monkey PCSK9 [12]): 0.0044 s⁻¹
- kon (cynomolgus monkey PCSK9 [12]): 190000 M⁻¹ s⁻¹
- Kd [13]: 0.079 nM
- koff [13]: 9.76e-06 s⁻¹
- kon [13]: 118000 M⁻¹ s⁻¹
- IC50 [14]: 1.4 nM
- Kd [5]: 0.293 nM
- koff [5]: 8.2e-05 s⁻¹
- kon [5]: 286000 M⁻¹ s⁻¹
- Kd (cynomolgus monkey PCSK9 [15]): 23.1 nM
- Kd [16]: 0.08 nM
- EC50 [17]: 2 nM

B12: ATI001114 (designed binder)
chain: MGVSDVPRDLEVVAATPTSLLISWVPPSDDYGYYRITYGETGGNSPVQEFTVPIGKGTATISGLKPGVDYTITVYAVEFPWPHAGYYHRPISINYRTGSGCHHHHHH
modifications: 40 kDa two-branched PEG on the cysteine of the C-terminal tail (GSGC)
notes: also called ATI1114
- EC50 [20]: 0.8 nM

— patent publication US20120094909A1 (Bristol-Myers Squibb, published 2012)
